The term EC50 denotes the concentration that produces a half-maximal response. Higher therefore signals lower potency in that assay.

This test deals with Human CD16 (biotinylated, Sino Biological Inc, cat#10389-H27H1-B) (human) (UniProt P08637). Put plainly: ELISA, biotinylated CD16 captured on neutravidin, anti-human Fab-HRP detection. For orientation: An ELISA detects its analyte on a solid surface through an enzyme-linked reagent.
Sequence of Human CD16 (biotinylated, Sino Biological Inc, cat#10389-H27H1-B) (human) (P08637 17-208): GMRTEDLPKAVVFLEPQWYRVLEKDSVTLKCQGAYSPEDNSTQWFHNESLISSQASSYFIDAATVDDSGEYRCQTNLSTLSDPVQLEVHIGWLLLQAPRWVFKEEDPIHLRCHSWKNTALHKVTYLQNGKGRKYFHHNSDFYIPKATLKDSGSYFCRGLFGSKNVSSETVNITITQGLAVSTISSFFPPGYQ

Substance Synagis (antibody) showed an EC50 of 6.15 µg/mL.

The values above are taken from patent EP2767548A2.
